In patent publication US20220323599A1 (CELGENE, published 2022):
Read-outs that look alike come from different tables or passages of the source.

How the values were obtained:
[1] = target: T1, human BCMA on cells (endogenous on multiple myeloma cell lines; stably transfected 293T-hBCMA) (human, UniProt Q02223 1-184); test: cell-based or functional assay
T1 sequence: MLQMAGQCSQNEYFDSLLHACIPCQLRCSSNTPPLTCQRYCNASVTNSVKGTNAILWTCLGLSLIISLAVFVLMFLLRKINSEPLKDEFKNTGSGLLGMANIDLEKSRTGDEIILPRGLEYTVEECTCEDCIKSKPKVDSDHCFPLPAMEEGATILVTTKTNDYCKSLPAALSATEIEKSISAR

[2] = target: T2, cynomolgus BCMA on stably transfected 293T cells (cynomolgus monkey, UniProt Q02223 1-184 (human entry)); test: FACS cell binding, 293T-cynoBCMA cells
T2 sequence (Q02223 other isoform, or with tags, fused parts or gaps): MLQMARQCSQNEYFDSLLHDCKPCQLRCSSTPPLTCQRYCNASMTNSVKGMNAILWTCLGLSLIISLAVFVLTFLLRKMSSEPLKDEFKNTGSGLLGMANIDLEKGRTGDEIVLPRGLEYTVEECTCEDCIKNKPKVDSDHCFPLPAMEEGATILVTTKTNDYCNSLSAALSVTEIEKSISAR

[3] = target: T3, human BCMA-Fc (R&D Systems) (human, UniProt Q02223 1-54); test: SPR (Biacore), antibody captured on anti-Fab or anti-Fc surface, human BCMA-Fc as analyte, 25 C
T3 construct: Bought protein; not shown: Fc part of the bought fusion protein, not described
T3 sequence: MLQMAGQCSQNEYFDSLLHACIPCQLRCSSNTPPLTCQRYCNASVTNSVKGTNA

[4] = target: T4, cyno BCMA-Fc (custom protein production) (cynomolgus monkey, UniProt Q02223 1-54 (human entry)); test: SPR (Biacore), antibody captured on anti-Fab or anti-Fc surface, cyno BCMA-Fc as analyte, 25 C
T4 construct: also called cynomolgus BCMA-Fc; not shown: Fc part of the fusion protein, not described

[5] = target: T1, human BCMA on cells (endogenous on …); test: FACS cell binding, NCI-H929 (BCMA+) cells
[6] = target: T5, mouse BCMA on transfected HEK293T cells (mouse, UniProt O88472 1-185); test: flow cytometry on 293T-mBCMA cells
T5 sequence: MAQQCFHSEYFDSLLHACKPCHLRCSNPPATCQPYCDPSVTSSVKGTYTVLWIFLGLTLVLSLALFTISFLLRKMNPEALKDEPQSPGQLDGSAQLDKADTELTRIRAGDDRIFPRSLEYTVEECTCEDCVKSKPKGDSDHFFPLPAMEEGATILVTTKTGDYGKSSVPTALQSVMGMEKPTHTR

[7] = target: T1, human BCMA on cells (endogenous on …); test: cell-based or functional assay; remark: listed apart in the source
[8] = target: T1, human BCMA on cells (endogenous on …); test: cell-based or functional assay; remark: listed apart in the source
[9] = target: T2, cynomolgus BCMA on stably transfected …; test: flow cytometry, 293T-cBCMA cells
[10] = target: T1, human BCMA on cells (endogenous on …); test: flow cytometry, RPMI-8226 cells
[11] = target: T1, human BCMA on cells (endogenous on …); test: flow cytometry, NCI-H929 cells
[12] = target: T1, human BCMA on cells (endogenous on …); test: flow cytometry, U266B1 cells
[13] = target: T1, human BCMA on cells (endogenous on …); test: cell-based or functional assay; remark: listed apart in the source
[14] = target: T1, human BCMA on cells (endogenous on …); test: flow cytometry, OPM-2 cells
[15] = target: T1, human BCMA on cells (endogenous on …); test: flow cytometry, ARP-1 cells
[16] = target: T6, human TACI on stably transfected 293T cells (human, UniProt O14836 1-293); test: flow cytometry on 293T cells stably expressing human TACI
T6 construct: whole, on cells; also called TNFRSF13B
T6 sequence (looked up): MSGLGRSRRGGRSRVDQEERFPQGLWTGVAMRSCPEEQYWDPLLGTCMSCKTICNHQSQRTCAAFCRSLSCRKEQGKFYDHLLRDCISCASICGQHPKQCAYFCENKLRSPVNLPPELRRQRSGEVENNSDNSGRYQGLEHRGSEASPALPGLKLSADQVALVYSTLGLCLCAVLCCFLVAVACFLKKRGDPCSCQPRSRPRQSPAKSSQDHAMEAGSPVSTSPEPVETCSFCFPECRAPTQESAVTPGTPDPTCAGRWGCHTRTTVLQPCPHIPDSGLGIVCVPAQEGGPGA

[17] = target: T1, human BCMA on cells (endogenous on …); test: cell-based or functional assay; remark: listed apart in the source
[18] = target: T7, human BAFF-R on stably transfected 293T cells (human, UniProt Q96RJ3 1-184); test: flow cytometry on 293T cells stably expressing human BAFF-R
T7 construct: whole, on cells; also called TNFRSF13C

[19] = target: T1, human BCMA on cells (endogenous on …); test: flow cytometry, MM.1S cells
[20] = target: T1, human BCMA on cells (endogenous on …); test: flow cytometry, 293T-hBCMA cells
[21] = target: T1, human BCMA on cells (endogenous on …); test: flow cytometry, NCI-H929 cells; NCI-H929 cells

B1: 2265-F02 (Fab-HC Variant ID; Antibody 4), cell-free expressed His- and FLAG-tagged IgG1 used in screening (antibody, V domains shown)
VH: EVQLVESGGGLVQPGGSLRLSCAASGFNISAPGIHWVRQAPGKGLEWVGFINPAGGYTDYADSVKGRFTISADTSKNTAYLQMNSLRAEDTAVYYCARDYIRQYWTYVLDYWGQGTLVTVSS
VL: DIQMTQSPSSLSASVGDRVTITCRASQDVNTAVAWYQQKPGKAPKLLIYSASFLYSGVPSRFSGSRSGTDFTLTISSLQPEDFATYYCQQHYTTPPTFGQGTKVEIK
**Q.** Which results are given for B1?
**A.** ARP-1, Conjugate M 2° antibody cell killing, EC50 [1]: 1.9 nM; U266B1, Conjugate M 2° antibody cell killing, EC50 [1]: 0.9 nM; Kd [2]: 6.2 nM; Kd [3]: 0.499 nM; koff [3]: 0.000293 s⁻¹; kon [3]: 587000 M⁻¹ s⁻¹; Kd [4]: 3.68 nM; koff [4]: 0.00116 s⁻¹; kon [4]: 315000 M⁻¹ s⁻¹; Kd [5]: 5.2 nM

B2: Conjugate 4: Antibody 2265-F02 conjugated to a non-cleavable maytansine warhead (Conjugate M) at Y180/F404 site (DAR4) (antibody, human IgG1, kappa, V domains shown)
VH: B1 VH
VL: not shown
modifications: p-azidomethyl-phenylalanine (pAMF) at HC-Y180 and HC-F404 by EU numbering (actual positions 186 and 410 as printed), each linked to the non-cleavable maytansinoid drug-linker (Conjugate M); DAR 4
notes: also called Conjugate 4 ADC; BCMA ADC Conjugate 4
**Q.** Does B2 bind [6]?
**A.** Result: no binding (tested: titrated from 200 nM)

**Q.** And the “cell killing EC50, NCI-H929, Experiment 1” value [7]?
**A.** The value was 0.8 nM.

**Q.** What about the “cell killing EC50, NCI-H929, Experiment 2” value [7] of the same binder?
**A.** The value was 0.8 nM.

**Q.** What about the “cell killing EC50, OPM2, Experiment 1” value [7] of the same binder?
**A.** Its value is 1.7 nM.

**Q.** And the “cell killing EC50, OPM2, Experiment 2” value [7]?
**A.** The value was 1.8 nM.

**Q.** And the “cell killing EC50, U266B1, Experiment 1” value [7]?
**A.** Its value is 0.8 nM.

**Q.** And the “cell killing EC50, U266B1, Experiment 2” value [7]?
**A.** Its value is 0.9 nM.

**Q.** What about the “cell killing EC50, ARP-1, no competing reagent” value [8] of the same binder?
**A.** The value was 0.7 nM.

**Q.** And the “cell killing EC50, NCI-H929, no competing reagent” value [8]?
**A.** Its value is 0.9 nM.

**Q.** What about the “cell killing EC50, OPM2, no competing reagent” value [8] of the same binder?
**A.** Its value is 3.3 nM.

**Q.** And the “cell killing EC50, U266B1, no competing reagent” value [8]?
**A.** Its value is 0.9 nM.

**Q.** What about the Kd [9] of the same binder?
**A.** Its Kd is 2.7 nM.

**Q.** What about the Kd [10] of the same binder?
**A.** Its Kd is 1.8 nM.

**Q.** What about the Kd [11] of the same binder?
**A.** The Kd was 2.4 nM.

**Q.** And the Kd [12]?
**A.** The Kd was 3.9 nM.

**Q.** And the “cell killing EC50, ARP-1” value [13]?
**A.** Its value is 0.7 nM.

**Q.** What about the “cell killing EC50, MM.1S” value [13] of the same binder?
**A.** The value was 0.82 nM.

**Q.** What about the “cell killing EC50, NCI-H929” value [13] of the same binder?
**A.** Its value is 0.8 nM.

**Q.** And the “cell killing EC50, OPM-2” value [13]?
**A.** Its value is 2.1 nM.

**Q.** What about the “cell killing EC50, U266B1” value [13] of the same binder?
**A.** The value was 0.86 nM.

**Q.** What about the Kd [14] of the same binder?
**A.** Its Kd is 2.3 nM.

**Q.** And the Kd [15]?
**A.** The Kd was 1.2 nM.

**Q.** Does B2 bind [16]?
**A.** Result: no binding (tested: 67 nM)

**Q.** And the “cell killing EC50, NCI-H929, Experiment 1” value [17]?
**A.** The value was 0.7 nM.

**Q.** What about the “cell killing EC50, NCI-H929, Experiment 2” value [17] of the same binder?
**A.** Its value is 0.8 nM.

**Q.** And the “cell killing EC50, OPM2, Experiment 1” value [17]?
**A.** The value was 1.7 nM.

**Q.** And the “cell killing EC50, OPM2, Experiment 2” value [17]?
**A.** The value was 2 nM.

**Q.** What about the “cell killing EC50, U266B1, Experiment 1” value [17] of the same binder?
**A.** The value was 0.7 nM.

**Q.** And the “cell killing EC50, U266B1, Experiment 2” value [17]?
**A.** Its value is 0.8 nM.

**Q.** Does B2 bind [18]?
**A.** Result: no binding (tested: 67 nM)

**Q.** And the Kd [19]?
**A.** Its Kd is 1.6 nM.

B3: 2265-F02 Y180/F404 (unconjugated Ab), unconjugated antibody version of Conjugate 4 (antibody, human IgG1, kappa, V domains shown)
VH: B1 VH
VL: not shown
modifications: p-azidomethyl-phenylalanine (pAMF) replacing HC-Y180 and HC-F404 by EU numbering (actual positions 186 and 410 as printed)
notes: Aglycosylated humanized IgG1
**Q.** Does B3 bind [6]?
**A.** Result: no binding (tested: titrated from 200 nM)

**Q.** What about the Kd [9] of the same binder?
**A.** Its Kd is 2.8 nM.

**Q.** And the Kd [10]?
**A.** Its Kd is 1.3 nM.

**Q.** What about the Kd [20] of the same binder?
**A.** The Kd was 2.1 nM.

**Q.** And the Kd [14]?
**A.** The Kd was 1.3 nM.

**Q.** What about the Kd [15] of the same binder?
**A.** Its Kd is 1 nM.

**Q.** And the Kd [21]?
**A.** Its Kd is 0.9 nM.

**Q.** And the Kd [19]?
**A.** Its Kd is 0.9 nM.
